Patent publication US20160229915A1 (Chugai, published 2016)
Substitutions are numbered along the chain they refer to. Names may count otherwise.

T1: mouse FcgRII extracellular domain, C-terminal His tag (mouse, UniProt P08101 30-210)
T1 construct: extracellular domain; also called mFcgRII; mFcγRII; not shown: C-terminal His tag
T1 sequence (looked up): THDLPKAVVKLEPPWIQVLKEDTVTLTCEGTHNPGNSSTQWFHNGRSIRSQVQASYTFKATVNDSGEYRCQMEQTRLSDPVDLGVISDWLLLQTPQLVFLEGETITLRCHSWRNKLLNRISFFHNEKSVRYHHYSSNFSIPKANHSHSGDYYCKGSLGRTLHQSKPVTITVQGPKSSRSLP

T2: mouse FcgRIII extracellular domain, C-terminal His tag (mouse, UniProt P08508 31-215)
T2 construct: extracellular domain; also called mFcgRIII; mFcγRIII; not shown: C-terminal His tag
T2 sequence (looked up): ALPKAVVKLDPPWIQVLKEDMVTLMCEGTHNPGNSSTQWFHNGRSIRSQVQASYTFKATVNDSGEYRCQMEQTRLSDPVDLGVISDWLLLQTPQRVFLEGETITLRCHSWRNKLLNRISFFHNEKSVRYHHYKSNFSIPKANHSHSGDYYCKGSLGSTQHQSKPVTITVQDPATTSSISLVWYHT

T3: mouse FcgRIV extracellular domain, C-terminal His tag (mouse, UniProt A0A0B4J1G0 21-203)
T3 construct: also called mFcgRIV; mFcγRIV
T3 sequence: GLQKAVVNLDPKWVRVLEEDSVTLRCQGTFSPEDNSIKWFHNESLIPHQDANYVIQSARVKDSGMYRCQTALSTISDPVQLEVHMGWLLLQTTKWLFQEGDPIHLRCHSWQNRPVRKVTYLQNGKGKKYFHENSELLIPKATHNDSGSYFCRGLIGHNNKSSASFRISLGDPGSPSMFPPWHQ

T4: mouse FcgRI extracellular domain, C-terminal His tag (mouse, UniProt P26151 25-297)
T4 construct: extracellular domain; also called mFcgRI; mFcγRI; not shown: C-terminal His tag
T4 sequence (looked up): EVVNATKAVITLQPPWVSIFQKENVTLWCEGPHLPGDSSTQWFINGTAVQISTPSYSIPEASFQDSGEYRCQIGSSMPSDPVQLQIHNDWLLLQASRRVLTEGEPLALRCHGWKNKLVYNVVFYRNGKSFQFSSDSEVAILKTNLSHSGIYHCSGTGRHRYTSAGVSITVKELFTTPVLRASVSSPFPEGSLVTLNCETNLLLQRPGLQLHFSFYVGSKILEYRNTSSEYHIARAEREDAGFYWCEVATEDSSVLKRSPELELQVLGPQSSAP

B1: MRAH-mIgG1mP3/MRAL-mk1//H54-mIgG1mN3/L28-mk1 (bispecific antibody)
heavy 1: QVQLQESGPGLVRPSQTLSLTCTVSGYSITSDHAWSWVRQPPGRGLEWIGYISYSGITTYNPSLKSRVTMLRDTSKNQFSLRLSSVTAADTAVYYCARSLARTTAMDYWGQGSLVTVSSAKTTPPSVYPLAPGSAAQTNSMVTLGCLVKGYFPEPVTVTWNSGSLSSGVHTFPAVLQSDLYTLSSSVTVPSSTWPSETVTCNVAHPASSTKVDKKIVPRDCGCKPCICTVPEVSSVFIFPPKPKDVLTITLTPKVTCVVVDISKDDPEVQFSWFVDDVEVHTAQTQPREEQFNSTFRSVSELPIMHQDWLNGKEFKCRVNSAAFPAPIEKTISKTKGRPKAPQVYTIPPPKEQMAKDKVSLTCMITDFFPEDITVEWQWNGQPAENYKNTQPIMKTDGSYFVYSKLNVQKSNWEAGNTFTCSVLHEGLHNHHTEKSLSHSPGK
light 1: DIQMTQSPSSLSASVGDRVTITCRASQDISSYLNWYQQKPGKAPKLLIYYTSRLHSGVPSRFSGSGSGTDFTFTISSLQPEDIATYYCQQGNTLPYTFGQGTKVEIKRADAAPTVSIFPPSSEQLTSGGASVVCFLNNFYPKDINVKWKIDGSERQNGVLNSWTDQDSKDSTYSMSSTLTLTKDEYERHNSYTCEATHKTSTSPIVKSFNRNEC
heavy 2: QVQLQESGPGLVKPSETLSLTCAVSGYSISDDQAWSWVRQPPGEGLEWIGYISYSGITNYNPSLKGRVTISRDTSKNQFSLKLSSVTAADTAAYYCARSLARTTAMDYWGEGTLVTVSSAKTTPPSVYPLAPGSAAQTNSMVTLGCLVKGYFPEPVTVTWNSGSLSSGVHTFPAVLQSDLYTLSSSVTVPSSTWPSETVTCNVAHPASSTKVDKKIVPRDCGCKPCICTVPEVSSVFIFPPKPKDVLTITLTPKVTCVVVDISKDDPEVQFSWFVDDVEVHTAQTQPREEQFNSTFRSVSELPIMHQDWLNGKEFKCRVNSAAFPAPIEKTISKTKGRPKAPQVYTIPPPKEQMAKDKVSLTCMITDFFPEDITVEWQWNGQPAENYKNTQPIMDTDGSYFVYSDLNVQKSNWEAGNTFTCSVLHEGLHNHHTEKSLSHSPGK
light 2: B1 light 1 with R18S, R24Q, K45E, T51G, R53E, Q79E, P80A, I83A, T93S, K107E
notes: Product of mouse IgG1-type Fab arm exchange (D399K on one H chain, K409D on the other); formation efficiency 89.2%, so the preparation may hold some homo variant; also called mIgG1mP3/mN3; mP3/mN3
B2: MRAH-mIgG1/MRAL-mk1 (antibody)
heavy: B1 heavy 1 with K395D
light: B1 light 1
notes: Control with mouse IgG1 H chain constant region and mouse kappa constant region; also called naturally occurring mIgG1
B3: MRAH-mIgG1mP4/MRAL-mk1//H54-mIgG1mN4/L28-mk1 (bispecific antibody)
heavy 1: B1 heavy 1 with K395R
light 1: B1 light 1
heavy 2: B1 heavy 2 with D405E
light 2: B1 light 1 with R18S, R24Q, K45E, T51G, R53E, Q79E, P80A, I83A, T93S, K107E
notes: Product of mouse IgG1-type Fab arm exchange (D399R on one H chain, K409E on the other); formation efficiency 89.9%, so the preparation may hold some homo variant; also called mIgG1mP4/mN4; mP4/mN4

Legend:
[1] = target: T1, mouse FcgRII extracellular domain, …; assay: SPR (Biacore), antibody captured on chip, His-tagged mFcgR extracellular domain as analyte, 25 C
Procedure: (§1) The two types of bispecific antibodies (MRAH-mIgG1mP3/MRAL-mk1//H54-mIgG1mN3/L28-mk1 and MRAH-mIgG1mP4/MRAL-mk1//H54-mIgG1mN4/L28-mk1) prepared by mouse IgG-type Fab arm exchange were tested for their binding to mouse FcgR and mouse FcRn according to Reference Example 4-3. Also, MRAH-mIgG1/MRAL-mk1 was prepared according to Reference Example 1 and assayed as a control.

[2] = target: T2, mouse FcgRIII extracellular domain, …; assay: as above
Procedure: as §1

[3] = target: T5, mouse FcRn (mouse, UniProt Q61559 22-297); assay: SPR (Biacore); relative to mIgG1
T5 construct: also called mFcRn
Procedure: (§2) Next, the binding to mFcRn was evaluated according to Reference Example 4-4.
(§3) Kinetic analysis was conducted on mouse FcRn and each antibody using Biacore T100, Biacore T200, Biacore A100, and Biacore 4000 (GE Healthcare Japan Corp.). An appropriate amount of protein L (ACTIGEN) was immobilized on Sensor Chip CM4 (GE Healthcare Japan Corp.) by the amine coupling method. The antibody of interest was captured onto the chip. Next, a diluted FcRn solution or a running buffer (as a control solution) was injected thereto so that the mouse FcRn was allowed to interact with the antibody captured on the sensor chip. The running buffer used was 50 mmol/L sodium phosphate, 150 mmol/L NaCl, and 0.05% (w/v) Tween 20 (pH 6.0), and each buffer was also used for diluting FcRn. 10 mmol/L glycine-HCl (pH 1.5) was used to regenerate the chip. The assay was conducted at 25° C. for all samples. From the sensorgram obtained by the assay, an association rate constant ka (1/Ms) and a dissociation rate constant […] (1/s) were calculated as kinetic parameters. The KD (M) of each antibody for mouse FcRn was calculated on the basis of the parameters. Biacore Evaluation Software (GE Healthcare Japan Corp.) was used in the calculation of each parameter.

[4] = target: T1, mouse FcgRII extracellular domain, …; assay: SPR (Biacore); binding activity relative to naturally occurring mIgG1
Procedure: as §1

[5] = target: T2, mouse FcgRIII extracellular domain, …; assay: as above
Procedure: as §1

[6] = target: T3, mouse FcgRIV extracellular domain, …; assay: SPR (Biacore), antibody captured on chip, mFcgR extracellular domain as analyte
Procedure: as §1

[7] = target: T4, mouse FcgRI extracellular domain, …; assay: as above
Procedure: as §1

[8] = target: T5, mouse FcRn; assay: SPR (Biacore), antibody captured by protein L, mouse FcRn as analyte, pH 6.0, 25 C
Procedure: as §2, §3

[9] = target: T5, mouse FcRn; assay: SPR (Biacore); relative to mIgG1 (the reference itself)
Procedure: as §2, §3

[10] = target: T1, mouse FcgRII extracellular domain, …; assay: as above
Procedure: as §1

[11] = target: T2, mouse FcgRIII extracellular domain, …; assay: as above
Procedure: as §1

T5 sequence (Q61559 22-297): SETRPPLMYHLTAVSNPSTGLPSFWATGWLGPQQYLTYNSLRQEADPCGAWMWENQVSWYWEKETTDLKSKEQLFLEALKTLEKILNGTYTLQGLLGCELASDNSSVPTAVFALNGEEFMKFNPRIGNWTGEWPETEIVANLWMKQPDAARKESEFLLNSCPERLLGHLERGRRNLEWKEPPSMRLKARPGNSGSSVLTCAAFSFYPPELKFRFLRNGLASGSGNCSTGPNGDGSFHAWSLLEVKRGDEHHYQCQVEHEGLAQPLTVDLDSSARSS

Kd [1] | Kd [2] | fold KD [3] | KD fold mFcgRII [4] | KD fold mFcgRIII [5] | binding result [6] | binding result [7] | Kd [8] | fold KD [9] | KD fold mFcgRII [10] | KD fold mFcgRIII [11] | Binder
670 nM | 670 nM | 1.2 fold | 1.2 fold | 1.2 fold | no binding | no binding | 2100 nM |  |  |  | B1
820 nM | 790 nM |  |  |  | no binding | no binding | 2500 nM | 1 fold | 1 fold | 1 fold | B2
670 nM | 680 nM | 1.3 fold | 1.2 fold | 1.2 fold | no binding | no binding | 1900 nM |  |  |  | B3
